The DeepSol protein solubility set

assay: soluble on expression in E. coli; label from the status in PepcDB or PDB records

Row | Sequence | soluble on expression in E. coli
1 | MAHHHHHHMPHIPRNHYLVVHDAIRKLLGPDAQLAAFVKAQHAFQCDMLVNDARTDPEELTRAGARHSGGGIGDDAAAKAGVGELARGLQAVLGICDVVPHTRRVDVIFRDRSLIQLALGAAKRDLPYALETGADVNQEPDWRLRNRLRISLGYDEELFLAQCTRSMNVAARILEKCAFDYARYSALMSTNAAMAAMYEASGQRWQAVLPPVTYWQAHCYSLMKAYPCRHYQQIVATVEHNFAAYYGEFPMTNPYCDGEDLNTIQVVRWLCEAFNAGAAVSHVTSAASSPVTVNEWQTVDCSMPAAMEDGDAEKGAAVMDNMADGRSSQEGRH | not soluble
2 | MPFEKYTVPVSGRSDAAIEEELTRLRAELAAEYDLREVVHRFGESDFTFLSVLDSYALLDRIDPAAFVKDEQMPYWAEIWPAAVTLSRQIVETGELAGKSVLELGAGVGMASIAAARSGARVLCTDYSTEALRFVAYNAMKNRVPLDTARLDWRMVKGAEKFDAVIAADVLYERVNLLPIVTAIDALLAPGGAAYIADPRRRLADQFLELVHENGFEVAETRMFDAEGDQTVAVTIYKLQRLKALEHHHHHH | soluble
3 | MGSDKIHHHHHHMMKHLTLWHTNDVHSHLEHWPRIFNFLKEKRTAADKENQSALFFDIGDFLDRVHPLTEGTNGLANTDLLNQLPYDVVTFGNNEGTTLAHEDLDKLYEHAVFPVVCCNFYTNKECTEQPDWVKSIVYKEIEQVKIAIIGATAPFRDYYEEMGWGIEEPISSIKKQVAGLDEDTDVVILLSHLGLPSDERIALEIPEVDVILGGHTHHLLETGKIEGNALLAAAGRWGEYIGKVDIELDENNQILTKTAMTFKTEDLPAAPNEANEIQGFFDKGRAELSEKVVAIPGKLAHNWFDDSEIAHILNEAVCEWTGAETFVMNAGIFMTDFEAGIVTDFDIHQMLPHPLNAIALTMSGEELEILIDGIYRKKAELQDIPLRGFGFRGEYFGTVLMERAGFDAENQVALFDNKPIDKTREYRIATHDTFVFAPFFPIVKQIKRKEVYTPELLRDILKWKLKKMYGQEEDK | not soluble
4 | MSKAFVDGLLQSSKVVVFSKSYCPYCHKARAALESVNVKPDALQWIEIDERKDCNEIQDYLGSLTGARSVPRVFINGKFFGGGDDTAAGAKNGKLAALLKETGAL | not soluble
5 | SSTQYSILFKQEHAHEDAIWTAAWGRSEKDGSETIVTGSLDDLVKVWKWSDEKLELQWTLEGHQLGVVSVNISQNGAIAASSSLDAHIRLWDLETGKQIKSMDAGPVDAWTVAFSPDSKYIATGSHLGKVNIFGVESGKKEHSLDTRGKFILSIAYSPDGKYLASGAIDGIINIFDIATGKLLHTLEGHAMPIRSLTFSPDSQLLVTASDDGYIKIYDVQHANLAGTLSGHGSWVLSVAFSPDDTHFVSSSSDKSIKVWDTSSRSCVNTFFDHQDQVWSVKYNPTGSKIVSAGDDRAIHIYDCPM | soluble
6 | VLIAGYLTDWRIMTTAQLRPIAPQKLHFSENLSVWVSDAQCRLVVSQPALDPTLWNTYLQGALRAYSKHGVECTLDLDAISDGSDTQLFFAAIDIGGDVVGGARVIGPLRSADDSHAVVEWAGNPGLSAVRKMINDRAPFGVVEVKSGWVNSDAQRSDAIAAALARALPLSMSLLGVQFVMGTAAAHALDRWRSSGGVIAARIPAAAYPDERYRTKMIWWDRRTLANHAEPKQLSRMLVESRKLLRDVEALSATTAATAGAEQ | not soluble
7 | MPEILKVKPTRMELLKLKRRVKLAERGHKLLKEKQDALIMEFFTIYDEALSMRRELIKKIGEAFEALRLAQVEVGSVRLKEIAIGVNPNKEIEVRSRNIMGVRVPLIEVPELKRKPSERGYAFISTSSAVDVAAEKFEEVLELAIRLAEVEESLKRLGKEIEKTKRRVNALEYIIIPRMKNTIKFIEQHLDEMERENFFRLKRIKALLEARESMLEHHHHHH | not soluble
8 | MGSDKIHHHHHHMRAVTAQAITEAVAKLCKEACYYVTPDMYAAFKKAEETEVSPLGKHILGRIIENADIAKREDMPICQDTGMTVVFVEIGQEVKIEGGYIEDAINAGVAKGYTEGYLRKSVVGEPLFNRANTKDNTPAVIHTRIVPGDKLKLKVCPKGFGSENKSVLKMLVPADGLEGVKKVFLEAVKLAGPNACPPMVIGVGIGGTMEKAAILAKKAAVRSVDSYNEHPDYAQLEKDLLEMACATGVGPQGLGGINTAVKVNIEWYPTHIAGLPVAVNINCHAARHADVTL | not soluble
9 | MRLLVQNVHKRFGKLEALKGVSLELGAGEILGLLGPNGAGKTTLIKVVLGLLLPDGGEVVLEEGGARRRPQGHEFGVLLEGSRNLYVNLSLLVNALYFGGIRGLPPKEVRPRFEAWLERFGLKDRLHAPLASLSRGMQQKAALALALALKPRFLLLDEPTLGLDPVSRREFEGILLELKKEGWGILLTSHDLEVVERVSDRVAFLHRGEVRRQGPTRVLLREWAGEGYRVRLAEPKAEALLQALGPGWSAEGPEVLFFLGPWEALREALGAFPVEVLEVSRGTPSLEALFLHLFGEARPSPSA | soluble
10 | SNQKIASIEQLSNNEGIISALAFDQRGALKRMMAKHQTEEPTVAQIEQLKVLVAEELTQYASSILLDPEYGLPASDARNKDCGLLLAYEKTGYDVNAKGRLPDCLVEWSAKRLKEQGANAVKFLLYYDVDDAEEINIQKKAYIERIGSECVAEDIPFFLEVLTYDDNIPDNGSVEFAKVKPRKVNEAMKLFSEPRFNVDVLKVEVPVNMKYVEGFAEGEVVYTKEEAAQHFKDQDAATHLPYIYLSAGVSAELFQETLKFAHEAGAKFNGVLCGRATWSGAVQVYIEQGEDAAREWLRTTGFKNIDDLNKVLKDTATSWKQ | not soluble
11 | MGSDKIHHHHHHMQNPPPPFNQNHLLAALPPAELERLKPHLELVHMPLGDVLCESGGRLSYVYFPTSAIISLHYILENGSSSEVAGVGNEGLLGISLFMGGENTPTWATVQTAGYCYRLKGPLLLQEFNQGGPLQRVLLRYTQALITQISQTAVCNRHHTIEQQLCRWLLLTLDRLNSQELVMTQELIASMLGVRREGITEAAGKLQQAEIIRYRRGHITVLNRAGLEGHVCECYEVVKKEFERLFRDVKKS | not soluble
12 | GPGSMFRAVYSNPAANVPASNCMTDGFPLLPPQRPHSSGSQLMRGCPLPWNDGRTLMYGVPAKNEASLQQVSYSRTLGQRWSSGSADNAAQCAAATHSTVCFASCASGANGSAGGSPVLLQPAMGVPAFVTDNQQLPSMVAQSSPTVSRLTSGMCSTSEGSATFGASTTSATSSTVGNCAATGTAATTNGSMAHTGTSPALPGFQMSVPLPTSAMTAVAAPPQQPQTCFWLSHTTGALTPIRKEDMMTISDTSASTNTHSYAMPPPPTMPSQPSSASATSVPTYLMAPQVSSFGGAMVQAFSELLSGSTAFSVPALPLPQPPRPPKTLNGLQYHLGELYEGFVKRYNPNRGFGFLTATTHVTVVNDGSNSDSATGTPIASLNNTTTAVPTTGEAETPKEYRTPVHLGDIFVHQSSMQMEGFRTLPVGGRVRFCIGYKDGQQTLQAVNVELLPQVLPPNVEMASSP | not soluble
13 | MGSDKIHHHHHHMKLPIKKAVEALLKLQTTGDSATLIGVGPMSRNLLQASFELAKEDDYPLMFIASRNQVDADELGGGYVNGWNQFSFIDAIKEVAKEVDFDGLYYVCRDHGGPWQRDQERNDHLPTEKAMELGKKSYIADIEAGFDLLMIDPTKDPFEVGKVIPLETVLERTVDLIAFCEEERKKRGLPEIGYEVGTEETNGGLTSTETYEKFITQLKVELEKRDLPLPTFIVGQTGTLTRKTEQVGHFNFKNAYDLAQMAKKYGVGLKEHNGDYLDDVTLLEHIPSEITATNVAPQYGTEETRAYLKLVELEQKLVENGLIKTPSNAREVLLIQSIKSERWRKWMLDGQKDITINEIMQDDDLSLEILDIAGHYTFNDAMVKKEINTLYANLAANNIDGKRFVIDHIKRPIRNYSECYNLKGATTRIKQLAK | not soluble
14 | MGSDKIHHHHHHMGSQAIVTGASGFIGSSVARMLAHKGWTVHGIGSSHLAMEAQEQIGIKHWVQQDLTLASLQGLADKTGDPDIIIHCAGGSSVQASISNPYEDFARTANATLNVLEFMRRYSPASALVYPSSAAVYGQTSSLPIAESSTPKPFSPYGHHKRIAEILCESYSLQWQLSVSIVRLFSVYGAGLKKQLLWDACQKAEQGAYSFFGSGAEIRDWLHVEDASNLLILAAEYASPECVIINGGSGVGTSINEILKLVGSHFALVSAPTFSGKAREGDPDSYVADITKAQALGFIPSFSLSDGIRQYVEWFKKECML | not soluble
15 | MAHHHHHHMPDGQQQSAKCATQVQNGEEATRNTYPRRDDTKLHVGLDYSSFYLDTPYKIIKCMNKGSHFLYWGSDTLCGQSDQVTKEFKMNEMKKNNCEELRNSRFIFFDSQKKLLVLRYNIRKNSFNYVSDSDPIYVYFYQLHEKNFLDDNIIKENKNSLLIYPYTYVKIWESLTCYINEEVINKIEPVNKTFCSSFLEEEVEEEKKKKKGGTDLRREEEMNLCNQPYMFYSVIPRYPASKTYPKEGRVSGGSRHKKEDNVGVITAEGDGASSINMGGDGSGGINTEGDGSGGAGGINMEGDHPVDPDEPPNDHLDGA | not soluble
16 | MGKTSKYVTAAALCSTIVMGGLHASSVSYAATNPTVATLQSDAKLLNDFKKELKKQIDNREENITITYKTKDRNARNIMDELYGEFNKIVDADEYVKYNIASTRYSIKGLPGNYTFTLQVKYRESKEQTQYVKSQAKAIIGSIVKPGMDEHEKVKAIHDYVVKHVSYDTSYQAYTAYEALANRSAVCQGYTLLTYELLKEAGIQNRIVTGTGNGQAHSWNLVNIENKWYHLDTTFDDPVPDKAGRVTYSYFNMSDEQLSKDHDWDRSKYPAATTSYFNELTNKIKAGSSKTATYEQMLKETNLKYLSAQYGADNYSEFKEKLQQQFASKPEKVEVRYKQSMDGTMQDIKKVLNEINWPKGAKRVSYQVAPYSAMADYSLATITFTY | not soluble
17 | MSEFDELKYLTGFGNEHATSDPRVPDALPVGQNSPQKCSHGLYAEQLSGTAFTAPRSQNQRSWLYRIRPSVIHRPFEAMKENDQHWTNNFSSIPPNPNQYRWNPFPLPTKEGVTFVDNLYTVCGGGDVISRTGLAIHQFSCNASMEHTAMYNSDGDFLIVPQQGALEITTEFGRLLVNPQEIAVIPQGIRFSVAVRGPSRGYILEVYGTHFQLPDLGPIGANGLANPRDFEAPVAWFEDLDVEFTIINKYQGSWFQAKQGHSPFDVVGWHGNYVPYKYDLKKFMVINTVSFDHCDPSIFTVLTAPSVKHGTAIADFVIFPPRWGCADNTFRPPYYHRNCMSEYMGLITGCYEAKEGGFKPGGGSLHSMMTPHGPDFNCFEMASNADLKPQRVAEGTMSFMFESSLNMAITNWAVYQNVDKDYYKDWQPLKKHFTMPK | not soluble
18 | MSITLITAAPGAGKTIFAVWNIIKPAVEADRVVYTAGIPELKLPAISLSYSQVKRWADRELVEVENPSGIPIPDDEKPSRLQNITEGALIVIDEVQYLWPASGSREPGEDIKYLTKHRHHGLEFVLITQAPQLIHKNVLAVVDKHIHMLSDWHGRKRYEWPEYCATVRATSSKLKAVSQRYELPKEAYGLYRSASMHI | not soluble
19 | MNAILHDMAVPFYKPVSNECSLFEAASRKGLPLLLKGPTGCGKTRFVEHMAARMGRKLYTVACHDDLSAADLIGRYLLKGGATEWVDGPLTRAVREGAICYLDEVVEARKDVTVVLHPLTDNRRTLMIDRTGEELVAPPGFMLVASYNPGYQNILKRLKPSTRQRFLSIGFTFPDPVTETAVVARESGLSEAKVAPLVRLAGHVRALSGMDLEEGVSTRLLVYAASLMAGGMSIEAALEAAVIEPLTDEPDVAQALRDLIATVYGLEHHHHHH | not soluble
